The values that follow come from paper PMC6063399, “Thiol-maleimide poly(ethylene glycol) crosslinking of L-asparaginase subunits at recombinant cysteine residues introduced by mutagenesis” (PLoS ONE, 2018).

The series concerns the molecule itself. Nature of the series: SEC; Superdex 200 10/300 GL in crosslinking buffer (0.1 M potassium phosphate, 5 mM EDTA, 0.150 M NaCl, pH 6.5-7.0), 0.75 ml/min; mutant reduced with TCEP before loading; fractions followed by A280 and catalytic activity; starting solution of low purity. On the technique in general: Size exclusion chromatography separates by hydrodynamic size, large species first.

B1: L-asparaginase mutant A38C-T263C (enzyme, E. coli, UniProt P00805 23-348, looked up)
chain: LPNITILATGGTIAGGGDSATKSNYTVGKVGVENLVNCVPQLKDIANVKGEQVVNIGSQDMNDNVWLTLAKKINTDCDKTDGFVITHGTDTMEETAYFLDLTVKCDKPVVMVGAMRPSTSMSADGPFNLYNAVVTAADKASANRGVLVVMNDTVLDGRDVTKTNTTDVATFKSVNYGPLGYIHNGKIDYQRTPARKHTSDTPFDVSKLNELPKVGIVYNYANASDLPAKALVDAGYDGIVSAGVGNGNLYKSVFDTLATAAKCGTAVVRSSRVPTGATTQDAEVDDAKYGFVASGTLNPQKARVLLQLALTQTKDPQQIQQIFNQY
notes: L-asparaginase II of E. coli (ansB), expressed with its natural signal peptide, which was excised; In the cross-linking experiments the two introduced cysteines were reacted with Bi-MAL-PEG (2000 or 5000 g/mol) after reduction with TCEP; also called mutant L-asparaginase; precursor mutant
Take B1: the binding result was “binds”.
